Test: soluble on expression in E. coli; label from the status in PepcDB or PDB records

| Sequence | soluble on expression in E. coli |
| --- | --- |
| MGSDKIHHHHHHMAAELKTITVLGAGGKMGMRISANFQKSDYQVFYCENSPRAQEQVVAAGRELSIAEQVIPESDVVILAVPDIALKAVSGIVVPQMKSNAVLLTLDPAAAYANLIAKRDDIDYAVAHPCHPSVFLDRFTPEEHADAFGGVAAPQHVAASYETGSDEQKATLARVVKVMYGPVIDVHWVTVKQLAYLEPTLVETVACMVGTLMKEALDETINTIGVPEAAAKAMLYGHIQIALAVAFRSTNPFSDACMIAIEYGKENIIKPDWKKIFDEKELDLVIAKMLKIDAIER | not soluble |
| MGSDKIHHHHHHMAEIDFIGRYHNATKRDYVQRVVEYDKAECAATAKQWGFDYWDGDRRHGFGGMRYDGRWLPLAEDLVRHYGLKAGDKVLDIGCGKAFLLYEMTRACPGLTVAGLDISEYGINNAKEEVRPFLTLGNATRLPWPDRHFDLVISINTFHNLQIHELDQAVREMQRVSTGRGYICVESYRDESEKANLLYWQLTCESFHRPEGWRWVYDQAGYTGDHGFIYFQ | not soluble |
| MGSDKIHHHHHHMAEINYQLIDFDNRGDLGLKNEPFELFGRMKIDRLNNNWSYEVEIFTHKRTMAFPDERYHLQEINQNGFALGAYDDSNCVGLAIYQKHWNKYLYLKDLKVNRDHRKLGIGNQLIKEGLRRAVQLGYKGVYAVCQDNNLAACQFYLKIGFQIGGFNDFDYNYTTQSGKSDIYFYLDKNSAR | not soluble |
| MGSDKIHHHHHHMAEQMRRVARLFGDWPETIIWTCLEGTMGDIYVDDSQSPQSALALYGRQSFFGFLAGQPHRDLLKICEGKNIILVPQNQAWSDLIEEVYGDGVRFFTRYATKKDTEFDLGHLQKLVDDLPESFDMKLIDRNLYETCLVEEWSRDLVGNYIDVEQFLDLGLGCVILHKGQVVSGASSYASYSAGIEIEVDTREDYRGLGLAKACAAQLILACLDRGLYPSWDAHTLTSLKLAEKLGYELDKAYQAYEWR | not soluble |
| MGSDKIHHHHHHMAESIRPLTKNDRQQFVTVMTKVFAKDPLFLYIFGDLYNDHRAQRRARTFMGFIFDKSMERQAEAVWGLFDKDTLLGTYVVESCPAETNHSFAELYRLMILIFRLSLQLPPKMTWQLNRYMRVTRAHAPSIPHHYLTIIGVRKEAQGAGRGRNLLEHIFGTIGSGELSLDTEKKENVTLYKKFGFVLTDVVKCGPINVYCMRKTIRPRQKN | not soluble |
| MGSDKIHHHHHHMAEVFHERLKSPIPTRELARRSRELQAVMKKENIDCILAQNITQYMGGCNRWLTDTTAENHYPQSSFLTKDGDIGYIACSGPPLDLYPPSHLLRIGKPWAAAPYFSVFNFTWDWEGRLFVKWVQENNVQKVGIAGMEMIMWNYYNYIAEKLPGVEIVDASSLFDEIRAVKSEDEIKFLEKSAALQDKVMGYLPALIQPGVREYEVRAKIMQLVTDHGGEEMIVIMGSAPRGEKFSLLPSFFQNRELQTGDELYVKLQCSGPGGLFTTVGRMFSIGCEPSGALEQGWREAAAAQEKLAGLLQVGADPQVIFGQYNAYLESKGYNQETGLFVYGQGYDHIERPSIQPGETMKLAKDMCLAANTSLISAERTVYCADSFILKPSGPQKLHRTPLTIFRT | not soluble |
| MGSDKIHHHHHHMAFKQRREYLFLYTVKDANPNGDPLNENHPRYDGDTAQAMASDVRVKRTTRDEWVRSGEIVFVDGEPKSLKTRFEELKKITGKSDAREIMKQCLDVRLFGVTFALGKEAFAWTGPVQFKWGRSLHSASFEFVQGTAAFATERGGADNRQRSFRNEYLVPFALMGVYAIANQYASQYTDAADEDLQRMLDGLWQGTDNLITRSKNEHKSRLLIEITYKEDFNGKIGALDDKVTLLDREGKVMDREKQKALRSLQEVSLDIGALLKSMELKQEQIAGIRVITDGEINIIQEEQLKGISSIEVR | not soluble |
| MGSDKIHHHHHHMAFQNIQRFQNQDLIRVGNDDNYLLLAPHYGGRLVRWVRHGEEILYWPEAADWSRPAKIRGGNPLLFPFIGRHFADGEAGRWRDANGTTHTLPQHGFARDLPFTVVAADDDKIVMALESSDSTRAGYPYAFRFEASYVMLEDGVEVALRSENTGSDRLPYYAGHHFYFSLPAAHRPDTRLLLPEAVRLRQEPDGRLTHAIQGEPAYALDDDRLQDTFHALRGGGSVTLAMPGRTLAIDLDVPGCVAWHAVTTWTESKDADFYCVEPWLGLPDAIHHGHGLRWLEPGEQETAVCRVRVVA | not soluble |
| MGSDKIHHHHHHMAGAFDAGFWLPVLERLPDFRGDCIDMGFYGQPKRPKVPRPLILAHSMGLAWALAHIPRPWAGVFAVNAFPRFTRSPTFVEGVPPRLIERMLARFDETPAQVTADFLTRCGLDNPDTSAIDAAPLKDELAWLARCDERTALRMLPCPVLALAGTSDPIVPQGMSTASFAPDTLTLVDGAGHLLPLTHPDWVAAQIRLFAARLEA | not soluble |
| MGSDKIHHHHHHMAGGVSLKYILEQLAEERLGFLVNGHAMRQESQVGDLKVMERKKKLLEKRKVDIIKAKAKAVINHVRVEDDGTTCLSYTIHYEYVCKEQDDSLYIEEHIEERMAFLYDHILISDQEIAKKPAGFHEGTSIIDYSEAEEEREAFGRAFQYDRLGAVQYAEKFWNKRNPAYKNFSDNCTNFISQCLHAGGAPMRGHPNRGSGWWMKQSSWSYSWTVAHSMKMYLSNSKAGLRAVRVKSAEELMPGDVICYDFEGDGRFNHTTIVVAKDKGNMPLVNAQTYDSRMRYWSYEDSTAYTPSIRYAFFHIVDDTTKE | not soluble |
| MGSDKIHHHHHHMAHIFVYGTLKRGQPNHKVMLDHSHGLAAFRGRGCTVESFPLVIAGEHNIPWLLYLPGKGHCVTGEIYEVDEQMLRFLDDFEDCPSMYQRTALQVQVLEWEGDGDPGDSVQCFVYTTATYAPEWLFLPYHESYDSEGPHGLRYNPRENR | soluble |
| MGSDKIHHHHHHMAIGTLEATTLIRGRAMTTVLPSPELIASFVDIVGPGNALTAPADTAPYLVESRGLYRGTTPLVLRPGSVEEVSLVMRLASQTRTAVVPQGGNTGHVAGQIPREGKADVVLSLERLNRIRDIDPVGNVIVADAGCILADIQKAADDVDRLFPLSLGSEGSARIGGNLSTNAGGTAVLAYGNMRQLCLGLEVVLPTGEIWDGLRRLRKDNTGYDLRDLFIGAEGTLGVITGAVLKLFPKPRGHQVAFAGLRSVEDALTLFDRATSVCGPALTGFELMPRLGIEFTTRHIAGVRDPMETTHPWYALIDISTSDTAESAERMVQDLLEAVIADGLVENAVIAQNEAQRRALWHMRESMSPAQKPEGGSIKHDVSVPVSSIPAFMTEADALVSKAIPGARICAFGHMGDGNIHYNISQPVGADKQSFLDRWREINAIVHAVVLKHDGSISAEHGIGQLKRDELAAIRSPIEIELMRRIKHAFDPAGIMNPDKVLREDRGE | not soluble |
| MGSDKIHHHHHHMAKKKVIFECMACGYQSPKWMGKCPNCGAWNQMEEIVEKAANPKHGVKTKELAGKVQKLNSIKHETTPRVLTDSAEFNRVLGGGIVSGSLVLIGGDPGIGKSTLLLQICASLSQKKKVLYITGEESLSQTKLRAERLDEDSSELQVLAETDLEVIYQTVKEEQPDLLVVDSIQTIYHPEISSAPGSVSQVRESTQSLMNIAKQMNIATFIVGHVTKEGQIAGPRLLEHMVDTVLYFEGDEHHAYRILRAVKNRFGSTNEMGIFEMKQSGLKGVNNPSEMFLEERSTNVPGSTIVATMEGTRPLLIEVQALVTPTTFNNPRRMATGIDHNRLSLLMAVLEKKENYLLQQQDAYIKVAGGVKLTEPAVDLSVIVATASSFKDKAVDGLDCYIGEVGLTGEVRRVSRIEQRVQEAAKLGFKRVIIPKNNIGGWTYPEGIQVIGVTTVHEALSFALHS | not soluble |
| MGSDKIHHHHHHMAKQQFNKLIWLVDTIFRNAPVTFAEINRRWRAGDDNRSDIPLRTFHNHRQAIEEIFDINIECDKRNNTYYIADAEGMLGDKLKMWLLNSFSLNNVLQENVDMKNRIVFEEVPSGVQFMDLVIDAMRSGRVLAMEYQAYNWEHSKDVLLEPYFVKLFRHRWYLIGINREYKAFRSYSLDRIKRIALSEETFNFPRKFTPQDHFRDSFGIIRDENLLPQHTVLRTTISQAPYLRNLPLHSSQKEIAVTESYVDFELYISHTYDFIQELLSKGAAVEVLKPQSLRDKIKAEIQNMQTLYHL | not soluble |
| MGSDKIHHHHHHMAKRKVPPEFVVERDDYKCIRCLACVRVCSYGANFYDENANRVYTENTKCVGCHFCEAICPTEAITVRKNDFDIRPLAHWTPEHLIGIMKQAETGGVLLTSMGNDRPYFSYFDRIVLNASQVTNPSIDPLREPMEIRTYIGRKEEKLEIEEDEDGTVKLKTEIAPQLKLEVPVMFTAMSYGSISLNAILSLARAARTVGTFFNTGEGGLPKELREFKDNMIVQVASGRFGVSADYLNAGSAVEIKIGQGAKPGIGGHLPGEKVTEPISETRMIPVGTDALSPAPHHDIYSIEDLRQLIYAIKEATRYEKPVGVKIAAVHNVAPIAAGAVRAGADYIVIDGIRGGTGAAPKITRDHVGIPIEFAVAVVDQRLREEGIRHMASIVVAGGIRNSADVIKAIALGADAVYIGTAALISLGCHLCQTCYLGKCNWGIATQDPKLTKRLNPEIGARRAANLLRAWAHEIKEILGGMGINAIESLRGNREVLRGVGLHEYELKLLGIKPAGEAW | not soluble |
| MGSDKIHHHHHHMAKVEELTPQQLSETDLKPRGRVYPSPISWRDQFLYQLVLDRFSDDNENQRELFDHTNLAKFQVKDKAGWMAAGTKFVGGTLRGIKSKLDYLQRLGVTTLWINPPWQQRSELEAYHSDRIQEFLDIDPHFGTRQDLRDLIDAAHDRRMYVILDVIYNQNADNWFHRNDVIAALARVYQYWIALSDCDGLRIDSLKHVSPEDSRKFCTAIREYAESIDKDNFLLTGEITSGSMAGAYIDIIARNFSAVLDIAQTPNELAAFAKGLVHPKQFFDLYSENNLAGEYRQIGTYHVSILDDYEMSFRTNKQRFAAYSNVPHLYEQVAHAVGVQLTMPGIPAIYYGTEQAFDGNEGYHDYSIEGRKFAEDRYIKEAMFGGAFGAFQTADCHFFDIDHPTYLRIAAIARIRNSHDKIGKALRRGHHYLRETSFFNSPFSIPGQGELVAWSQTLFDTEVLMVLNTNGLENRGAEVTVDTYMHPQDSTMTFLYKSDWSDSYLRHPPRDQTVAVQHHNDRRATVRIDLPPSGMAILA | not soluble |
| MGSDKIHHHHHHMAKVIKTKKGLALNLKGKPLPEMLAEPAQSPTYAVVPDDFEGVIPKVTARPGDKVRAGSALMHHKAYPEMKFTSPVSGEVIAVNRGAKRKVLSIEVKPDGLNEYESFPVGDPSALSAEQIKELLLSSGMWGFIKQRPYDIVATPDIAPRDIYITANFTAPLAPDFDFIVRGEERALQTAIDALAKLTTGKVYVGLKPGSSLGLHNAEIVEVHGPHPAGNVGVLINHTKPINRGETVWTLKATDLIVIGRFLLTGKADFTRMIAMTGSDAAAHGYVRIMPGCNVFASFPGRLTIKESHERVIDGNVLTGKKLCEKEPFLSARCDQITVIPEGDDVDELFGWAAPRLDQYSMSRAYFSWLQGKNKEYVLDARIKGGERAMIMSNEYDRVFPMDIYPEYLLKAIIAFDIDKMEDLGIYEVAPEDFATCEFVDTSKIELQRIVREGLDMLYKEMN | not soluble |
| MGSDKIHHHHHHMALIEGFRVRNYRALRDITLGRLSAEQQGDPLTPFTVVIGKNGVGKSTLFDAFGFVADCLSKDVESACDDKQRGGFERMRSLGTEESIRFDIYYREAKGERPITYELAINLDSSGRPFVESEVLKQRRKGQKHGRPYPFLRLHHGVGKVWAGEEAVETSSGEEDRAQEDVELTDLRQLGIATLGTLKEHPRIKRFRDFLKGWHLSYFHPDSARSIPSAGAQRHLDVHGENIGNVVQYMEREHKERFKTILDRIAAKIPGVHSIRTTVTQDKRVLLQFNDGAFNDPFYAGQMSDGTLKIFAYLLLMEDPEPPPFICIEEPENGLYHRLLDSLASELRSHATGKKNAPQIFVTTHQPYFVDALSTKEVWILEKGKNGFSTICRASDIDLVRNLVEEGLPLGGLWYGDYLDTK | not soluble |

Reference: the DeepSol protein solubility set
